Paper PMC9352680, “A comprehensive thermodynamic model for RNA binding by the Saccharomyces cerevisiae Pumilio protein PUF4”
Numbering of substitutions follows the chain as printed. Numbers in names are those of the source.

T1: PUF4 RNA-binding domain (Saccharomyces cerevisiae, UniProt P25339 537-888)
T1 sequence: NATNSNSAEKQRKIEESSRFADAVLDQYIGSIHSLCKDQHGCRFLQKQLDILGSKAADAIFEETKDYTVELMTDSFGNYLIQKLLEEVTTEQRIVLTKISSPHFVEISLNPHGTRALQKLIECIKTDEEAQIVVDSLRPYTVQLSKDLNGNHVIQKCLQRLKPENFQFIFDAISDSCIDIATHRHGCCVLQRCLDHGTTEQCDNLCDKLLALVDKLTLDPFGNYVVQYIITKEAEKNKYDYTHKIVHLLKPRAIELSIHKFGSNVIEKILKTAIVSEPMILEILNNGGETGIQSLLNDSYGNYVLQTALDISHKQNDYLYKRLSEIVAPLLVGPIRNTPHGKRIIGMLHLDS

B1: Ic_S4_P4E.1_K4.1_C4.1_H4.1_A4.1_[A6T]_[T7G]_F4.1_[A9G]_T4.1 (ssRNA)
RNA: UUUGACAACUGAUCGUUCUUUCUUGUAUUGUGUUCUUUCUCGAUCAGUUGUCUUU
B2: Ic_S4_P4E.1_K4.1_C4.1_H4.1_A4.1_F4.1_[T8A]_T4.1 (ssRNA)
RNA: B1 RNA with U29A, G30U, U31A, G32A
B3: Ic_S4_P4E.1_K4.1_C4.1_H4.1_A4.1_[A6T]_[T7A]_F4.1_[T8A]_[A9T]_T4.1 (ssRNA)
RNA: B1 RNA with G30A, U31A, G32U
B4: Ic_S4_P4E.1_K4.1_C4.1_H4.1_A4.1_[A6T]_[T7A]_F4.1_[A9C]_T4.1 (ssRNA)
RNA: B1 RNA with G30A, G32C
B5: Ic_S4_P4E.1_K4.1_C4.1_H4.1_A4.1_[A6T]_F4.1_[T8G]_[A9T]_T4.1 (ssRNA)
RNA: B1 RNA with G30U, U31G, G32U
B6: Ic_S4_P4E.1_K4.1_C4.1_H4.1_A4.1_[A6T]_[T7A]_F4.1_[T8C]_T4.1 (ssRNA)
RNA: B1 RNA with G30A, U31C, G32A
B7: Ic_S4_P4E.1_K4.1_C4.1_H4.1_A4.1_[A6T]_[T7C]_F4.1_[T8A]_[A9T]_T4.1 (ssRNA)
RNA: B1 RNA with G30C, U31A, G32U
B8: Ic_S4_P4E.1_K4.1_C4.1_H4.1_A4.1_[T7G]_F4.1_[T8C]_[A9C]_T4.1 (ssRNA)
RNA: B1 RNA with U29A, U31C, G32C
B9: Ic_S4_P4E.1_K4.1_C4.1_H4.1_A4.1_[A6T]_F4.1_[T8A]_T4.1 (ssRNA)
RNA: B1 RNA with G30U, U31A, G32A
B10: Ic_S4_P4E.1_K4.1_C4.1_H4.1_A4.1_[T7A]_F4.1_[A9T]_T4.1 (ssRNA)
RNA: B1 RNA with U29A, G30A, G32U
B11: Ic_S4_P4E.1_K4.1_C4.1_H4.1_A4.1_[A6T]_[T7C]_F4.1_[T8A]_[A9C]_T4.1 (ssRNA)
RNA: B1 RNA with G30C, U31A, G32C
B12: Ic_S4_P4E.1_K4.1_C4.1_H4.1_A4.1_[A6T]_F4.1_[A9T]_T4.1 (ssRNA)
RNA: B1 RNA with G30U, G32U
B13: Ic_S4_P4E.1_K4.1_C4.1_H4.1_A4.1_[T7C]_F4.1_[T8A]_[A9C]_T4.1 (ssRNA)
RNA: B1 RNA with U29A, G30C, U31A, G32C
B14: Ic_S4_P4E.1_K4.1_C4.1_H4.1_A4.1_[A6T]_[T7A]_F4.1_[T8G]_[A9C]_T4.1 (ssRNA)
RNA: B1 RNA with G30A, U31G, G32C
B15: Ic_S4_P4E.1_K4.1_C4.1_H4.1_A4.1_F4.1_[T8C]_[A9C]_T4.1 (ssRNA)
RNA: B1 RNA with U29A, G30U, U31C, G32C
B16: Ic_S4_P4E.1_K4.1_C4.1_H4.1_A4.1_[A6T]_[T7C]_F4.1_[T8C]_[A9T]_T4.1 (ssRNA)
RNA: B1 RNA with G30C, U31C, G32U
B17: Ic_S4_P4E.1_K4.1_C4.1_H4.1_A4.1_[T7A]_F4.1_[T8C]_[A9G]_T4.1 (ssRNA)
RNA: B1 RNA with U29A, G30A, U31C
B18: Ic_S4_P4E.1_K4.1_C4.1_H4.1_A4.1_[A6T]_[T7C]_F4.1_[A9G]_T4.1 (ssRNA)
RNA: B1 RNA with G30C
B19: Ic_S4_P4E.1_K4.1_C4.1_H4.1_A4.1_[A6T]_F4.1_[T8C]_[A9C]_T4.1 (ssRNA)
RNA: B1 RNA with G30U, U31C, G32C
B20: Ic_S4_P4E.1_K4.1_C4.1_H4.1_A4.1_[A6T]_[T7A]_F4.1_[T8C]_[A9C]_T4.1 (ssRNA)
RNA: B1 RNA with G30A, U31C, G32C
B21: Ic_S4_P4E.1_K4.1_C4.1_H4.1_A4.1_[A6T]_[T7C]_F4.1_[T8G]_[A9C]_T4.1 (ssRNA)
RNA: B1 RNA with G30C, U31G, G32C
B22: Ic_S4_P4E.1_K4.1_C4.1_H4.1_A4.1_F4.1_[A9C]_T4.1 (ssRNA)
RNA: B1 RNA with U29A, G30U, G32C
B23: Ic_S4_P4E.1_K4.1_C4.1_H4.1_A4.1_[T7C]_F4.1_[T8G]_[A9T]_T4.1 (ssRNA)
RNA: B1 RNA with U29A, G30C, U31G, G32U
B24: Ic_S4_P4E.1_K4.1_C4.1_H4.1_A4.1_[A6T]_[T7C]_F4.1_[T8C]_[A9G]_T4.1 (ssRNA)
RNA: B1 RNA with G30C, U31C
B25: Ic_S4_P4E.1_K4.1_C4.1_H4.1_A4.1_[A6T]_[T7C]_F4.1_[A9C]_T4.1 (ssRNA)
RNA: B1 RNA with G30C, G32C
B26: Ic_S4_P4E.1_K4.1_C4.1_H4.1_A4.1_F4.1_T4.1 (ssRNA)
RNA: B1 RNA with U29A, G30U, G32A
B27: Ic_S4_P4E.1_K4.1_C4.1_H4.1_A4.1_[A6T]_[T7C]_F4.1_[A9T]_T4.1 (ssRNA)
RNA: B1 RNA with G30C, G32U
B28: Ic_S4_P4E.1_K4.1_C4.1_H4.1_A4.1_[A6T]_F4.1_[T8G]_[A9G]_T4.1 (ssRNA)
RNA: B1 RNA with G30U, U31G
B29: Ic_S4_P4E.1_K4.1_C4.1_H4.1_A4.1_[T7G]_F4.1_[T8C]_[A9T]_T4.1 (ssRNA)
RNA: B1 RNA with U29A, U31C, G32U
B30: Ic_S4_P5E.1_K5.1_C5.1_H5.1_A5.1_[T5C]_[T6C]_F5.1_[T8A]_[T9C]_[A10C]_T5.1 (ssRNA)
RNA: UUUGACAACUGAUCGUUCUUUCUUGUACCAACCUUCUUUCUCGAUCAGUUGUCUUU
B31: Ic_S4_P5E.1_K5.1_C5.1_H5.1_A5.1_[T5G]_F5.1_[T8A]_[T9C]_[A10C]_T5.1 (ssRNA)
RNA: B30 RNA with C28G, C29U
B32: Ic_S4_P5E.1_K5.1_C5.1_H5.1_A5.1_[T5G]_[A7G]_F5.1_[T8C]_[T9C]_[A10T]_T5.1 (ssRNA)
RNA: B30 RNA with C28G, C29U, A30G, A31C, C33U
B33: Ic_S4_P5E.1_K5.1_C5.1_H5.1_A5.1_[T5A]_[T6C]_[A7C]_F5.1_[T8G]_[T9C]_[A10C]_T5.1 (ssRNA)
RNA: B30 RNA with C28A, A30C, A31G
B34: Ic_S4_P5E.1_K5.1_C5.1_H5.1_A5.1_[T6A]_[A7T]_F5.1_[T8C]_[T9G]_[A10C]_T5.1 (ssRNA)
RNA: B30 RNA with C28U, C29A, A30U, A31C, C32G
B35: Ic_S4_P5E.1_K5.1_C5.1_H5.1_A5.1_[T6C]_F5.1_[T8A]_[T9A]_[A10C]_T5.1 (ssRNA)
RNA: B30 RNA with C28U, C32A
B36: Ic_S4_P5E.1_K5.1_C5.1_H5.1_A5.1_[T6C]_[A7T]_F5.1_[T9A]_[A10G]_T5.1 (ssRNA)
RNA: B30 RNA with C28U, A30U, A31U, C32A, C33G
B37: Ic_S4_P5E.1_K5.1_C5.1_H5.1_A5.1_[T5G]_[A7T]_F5.1_[T9C]_[A10C]_T5.1 (ssRNA)
RNA: B30 RNA with C28G, C29U, A30U, A31U
B38: Ic_S4_P5E.1_K5.1_C5.1_H5.1_A5.1_[T5A]_[A7G]_F5.1_[T8C]_[T9A]_[A10T]_T5.1 (ssRNA)
RNA: B30 RNA with C28A, C29U, A30G, A31C, C32A, C33U
B39: Ic_S4_P5E.1_K5.1_C5.1_H5.1_A5.1_[T5C]_[T6G]_[A7G]_F5.1_[T9A]_T5.1 (ssRNA)
RNA: B30 RNA with C29G, A30G, A31U, C32A, C33A
B40: Ic_S4_P5E.1_K5.1_C5.1_H5.1_A5.1_[T6A]_[A7C]_F5.1_[T8C]_[T9G]_[A10T]_T5.1 (ssRNA)
RNA: B30 RNA with C28U, C29A, A30C, A31C, C32G, C33U
B41: Ic_S1_P4E.1_K4.1_C4.1_H4.1_A4.1_[T5A]_F4.1_[A9G]_T4.1 (ssRNA)
RNA: UCUCUUUGUAAAUUGUCUCUU
B42: Ia_S1_P4E.1_K4.1_C4.1_H4.1_[A4T]_A4.1_F4.1_T4.1 (ssRNA)
RNA: UCUCUUUGUUUAUUAUCUCUU
B43: Ic_S1_P4E.1_K4.1_C4.1_H4.1_A4.1_[T5C]_F4.1_[A9G]_T4.1 (ssRNA)
RNA: UCUCUUUGUACAUUGUCUCUU
B44: Ib_S1_P4E.1_K4.1_C4.1_H4.1_A4.1_[T7C]_F4.1_[T8A]_T4.1 (ssRNA)
RNA: UCUCUUUGUAUACAAUCUCUU
B45: Ib_S1_P4E.1_K4.1_C4.1_H4.1_A4.1_[T7A]_F4.1_[T8A]_T4.1 (ssRNA)
RNA: UCUCUUUGUAUAAAAUCUCUU

target: T1, PUF4 RNA-binding domain; assay: Mg; RNA-MaP; 20 mM Na-HEPES pH 7.4, 30 mM KOAc, 0.75 mM MgCl2, 0.1% Tween-20, 5% glycerol, 0.1 mg/mL BSA, 2 mM DTT; 25 C; 0.0125-409.6 nM protein; settings: tags: N-His6-TEV cleaved; C-SNAP kept, Cy3B-labelled; label: tethered on chip by stalled RNA polymerase

Row | Binder | Kd [µM]
1 | B1 | 0.0751
2 | B2 | 0.0029
3 | B3 | 0.095
4 | B4 | 0.0383
5 | B5 | 0.0461
6 | B6 | 0.436
7 | B7 | 0.113
8 | B8 | 0.0873
9 | B9 | 0.0211
10 | B10 | 0.0102
11 | B11 | 0.425
12 | B12 | 0.0121
13 | B13 | 0.0511
14 | B14 | 0.794
15 | B15 | 0.0123
16 | B16 | 0.0619
17 | B17 | 0.0404
18 | B18 | 0.0204
19 | B19 | 0.0745
20 | B20 | 0.191
21 | B21 | 0.417
22 | B22 | 0.00449
23 | B23 | 0.0275

Row | Binder | Kd [µM]
24 | B24 | 0.159
25 | B25 | 0.0344
26 | B26 | 0.000362
27 | B27 | 0.0278
28 | B28 | 0.23
29 | B29 | 0.0495
30 | B30 | 0.424
31 | B31 | 1.16
32 | B32 | 0.956
33 | B33 | 1.38
34 | B34 | 0.0218
35 | B35 | 0.156
36 | B36 | 0.00348
37 | B37 | 0.125
38 | B38 | 0.844
39 | B39 | 0.0384
40 | B40 | 0.0378
41 | B41 | 0.0109
42 | B42 | 0.0115
43 | B43 | 0.00375
44 | B44 | 0.0448
45 | B45 | 0.0221
